In patent US20240247080A1, “GLP1/GIP/NPY2 RECEPTOR TRIPLE AGONISTS” (Boehringer Ingelheim International GmbH, priority 2022, published 2024):
Starred links: 1 amine or outer side, 2 acyl side, 3 side chain; linkers in the order of their positions; H or OH if unused. Non-standard residues stand in square brackets, D forms with d. Groups on a side chain read outwards from the residue. No end group written: not given here. *: point of attachment. C20 diacid = O=C(O)CCCCCCCCCCCCCCCCCCC(=O)*; γGlu = O=C(O)[C@H](CCC(=O)[*:2])N[*:1]; εLys = N[C@@H](CCCCN[*:1])C(=O)[*:2]; AEEA = NCCOCCOCC(=O)O; Aib = CC(C)(N)C(=O)O

T1: NPY2 receptor (human (printed as hNPY2R), UniProt P49146 1-381)
T1 sequence (looked up): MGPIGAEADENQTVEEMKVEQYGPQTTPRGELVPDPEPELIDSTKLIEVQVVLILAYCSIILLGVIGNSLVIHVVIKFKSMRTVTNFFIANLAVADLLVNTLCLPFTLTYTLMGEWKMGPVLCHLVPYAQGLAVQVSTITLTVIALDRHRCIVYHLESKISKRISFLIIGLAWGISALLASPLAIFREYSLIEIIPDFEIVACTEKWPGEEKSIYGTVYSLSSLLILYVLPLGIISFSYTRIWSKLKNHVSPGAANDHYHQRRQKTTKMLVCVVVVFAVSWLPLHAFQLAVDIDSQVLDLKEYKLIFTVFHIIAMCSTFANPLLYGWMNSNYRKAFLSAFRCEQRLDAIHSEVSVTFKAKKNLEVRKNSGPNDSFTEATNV

T2: GIP receptor (human (printed as hGIPR), UniProt P48546 22-466)
T2 sequence (looked up): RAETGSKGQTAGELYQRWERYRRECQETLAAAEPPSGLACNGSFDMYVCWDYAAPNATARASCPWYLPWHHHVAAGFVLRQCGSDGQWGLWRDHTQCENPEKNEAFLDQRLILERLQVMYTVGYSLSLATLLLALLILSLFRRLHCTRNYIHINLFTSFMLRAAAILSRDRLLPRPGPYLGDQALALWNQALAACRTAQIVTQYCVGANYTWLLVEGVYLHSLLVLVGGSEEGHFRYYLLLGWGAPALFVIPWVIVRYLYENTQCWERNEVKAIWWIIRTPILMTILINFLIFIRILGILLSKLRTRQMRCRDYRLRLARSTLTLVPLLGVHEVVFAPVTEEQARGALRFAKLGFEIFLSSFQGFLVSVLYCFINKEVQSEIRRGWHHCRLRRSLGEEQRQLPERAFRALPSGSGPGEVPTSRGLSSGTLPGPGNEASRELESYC


Legend:
Experiment in all cases: cell-based or functional assay
NPY2 receptor = target: T1, NPY2 receptor
GLP-1 receptor = GLP-1 receptor (human (printed as hGLP1R), UniProt P43220 24-463)
GIP receptor = target: T2, GIP receptor

Binder | EC50 hNPY2R 0.5% hP (CreLuc) (NPY2 receptor) | EC50 hNPY2R 100% hP (CreLuc) (NPY2 receptor) | EC50 hGLP1R 0.5% hP (CreLuc) (GLP-1 receptor) | EC50 hGLP1R 100% hP (CreLuc) (GLP-1 receptor) | EC50 hGIPR 0.5% hP (CreLuc) (GIP receptor) | EC50 hGIPR 100% hP (CreLuc) (GIP receptor)
Y[Aib]EGTFTSDYSI[Aib]LEKQAQ[Aib]AFVQWLIK([γGlu-γGlu-γGlu-γGlu-γGlu-γGlu-C20 diacid])GGPSEGASLRHYYNWLTRQRY-NH2 (also: TFA salt) [Compound 223] | 13.2 nM | 57.5 nM | 0.18 nM | 4.39 nM | 0.39 nM | 3.16 nM
YXEGTFTSDYSIXLEKQAQRAFVEWLIKGGPSSGASLRHYYNWLTRQRY (Aib at 2, 13; D-Arg at 20; K28 side chain carries C20DA-gGlu-gGlu-gGlu-gGlu-gGlu-gGlu-eLys; C-terminal amide) [Compound 216] | 2.81 nM | 16.8 nM | 0.31 nM | 10.6 nM | 9.45 nM | 64.2 nM
YXEGTFTSDYSIXLEKQAQXAFVEWLIKGGPSSGASLRHYYNXLTRQRY (Aib at 2, 13, 20, 43; K28 side chain carries C20DA-gGlu-gGlu-gGlu-gGlu-gGlu-gGlu-eLys; C-terminal amide) [Compound 218] | 87.4 nM | 623 nM | 0.16 nM | 3.3 nM | 0.36 nM | 2.35 nM
YXEGTFTSDYSIXLEKQAQXAFVEWLIKGGPSEGASLRHYYNWLTRQRY (Aib at 2, 13, 20; NMeR (N-methyl-L-arginine) at 48; K28 side chain carries C20DA-gGlu-gGlu-gGlu-gGlu-gGlu-gGlu-eLys; C-terminal amide) [Compound 236] | 31 nM | 86.6 nM | 0.26 nM | 3.42 nM | 0.3 nM | 1.41 nM
YXEGTFTSDYSIXLEKQAQXAFVEWLIKGGPSYGASLRHYYNWLTRQRY (Aib at 2, 13, 20; K28 side chain carries C20DA-gGlu-gGlu-gGlu-gGlu-gGlu-gGlu-eLys; C-terminal amide) [Compound 232] | 15.3 nM | 36.8 nM | 0.21 nM | 4.88 nM | 0.19 nM | 1.64 nM
YXEGTFTSDYSIXLEKQAQXAFVEWLIKGGPSSGASLRHYYNWLTRQRY (Aib at 2, 13, 20; K28 side chain carries C20DA-gGlu-gGlu-gGlu-gGlu-gGlu-OEG-OEG; C-terminal amide) [Compound 229] | 10.8 nM | 27.2 nM | 0.1 nM | 3.31 nM | 0.22 nM | 1.42 nM
YXEGTFTSDYSIXLEKQAQXAFVEWLIKGGPSEPASLRHYYNWLTRQRY (Aib at 2, 13, 20; K28 side chain carries C20DA-gGlu-gGlu-gGlu-gGlu-gGlu-gGlu-eLys; C-terminal amide) [Compound 233] | 12.6 nM | 27.1 nM | 0.17 nM | 1.7 nM | 0.08 nM | 0.75 nM
YXEGTFTSDYSIXLEKQAQXAFVEWLIKGGPSEGASLRHYYNWLTRQRY (Aib at 2, 13, 20; NMeQ (N-methyl-L-glutamine) at 47; K28 side chain carries C20DA-gGlu-gGlu-gGlu-gGlu-gGlu-gGlu-eLys; C-terminal amide) [Compound 222] | 13.3 nM | 41.6 nM | 0.24 nM | 4.43 nM | 0.19 nM | 1.85 nM
YXEGTFTSDYSIXLEKQAQXAFVEWLIKGGPSSGASLRHYYNWLTRQRY (Aib at 2, 13, 20; K28 side chain carries C20DA-gGlu-gGlu-gGlu-gGlu-gGlu-gGlu-eLys; C-terminal amide) [Compound 221] | 12.4 nM | 49.3 nM | 0.11 nM | 2.23 nM | 0.14 nM | 0.92 nM
YXEGTFTSDYSIXLEKQAQXAFVQWLIKGGPSEGASLRHYYNWLTRQRY (Aib at 2, 13, 20; K28 side chain carries C20DA-gGlu-gGlu-gGlu-gGlu-gGlu-gGlu-eLys; C-terminal amide) [Compound 220] | 10.2 nM | 42.6 nM | 0.17 nM | 5.28 nM | 0.29 nM | 1.83 nM
YXEGTFTSDYSIXLEKQAQXAFVEWLIKGGPSEYVSLRHYYNWLTRQRY (Aib at 2, 13, 20; K28 side chain carries C20DA-gGlu-gGlu-gGlu-gGlu-gGlu-gGlu-eLys; C-terminal amide) [Compound 217] | 18.6 nM | 35.4 nM | 1.34 nM | 17.2 nM | 0.74 nM | 8.85 nM
YXEGTFTSDLSIXLEKQAQXAFVEWLIKGGPSEGASLRHYYNWLTRQRY (Aib at 2, 13, 20; K28 side chain carries C20DA-gGlu-gGlu-gGlu-gGlu-Glu-gGlu-eLys (so in the source); C-terminal amide) [Compound 234] | 25.1 nM | 48.1 nM | 0.35 nM | 2.66 nM | 0.74 nM | 3.27 nM
YXEGTFTSDYSIXLEKQAQXAFVEWLIKGGPSEGQSLRHYYNWLTRQRY (Aib at 2, 13, 20; K28 side chain carries C20DA-gGlu-gGlu-gGlu-gGlu-gGlu-gGlu-eLys; C-terminal amide) [Compound 227] | 10.2 nM | 44.2 nM | 0.13 nM | 3.07 nM | 0.06 nM | 1.23 nM
YXEGTFTSDYSIXLEKQAQXAFVQWLIKGGPSEGASLRHYYNWLTRQRY (Aib at 2, 13, 20; K28 side chain carries C20DA-gGlu-gGlu-gGlu-gGlu-gGlu-OEG-OEG; C-terminal amide) [Compound 228] | 9.6 nM | 30.1 nM | 0.12 nM | 4.18 nM | 0.23 nM | 1.52 nM
Y[Aib]EGTFTSDYSI[Aib]LEKQAQ[Aib]AFIEWLIK([AEEA-AEEA-γGlu-γGlu-γGlu-γGlu-C20 diacid])GGPSEGASLRHYYNWLTRQRY-NH2 (also: TFA salt) [Compound 231] | 19.2 nM | 53 nM | 0.14 nM | 3.28 nM | 0.33 nM | 1.43 nM
Y[Aib]EGTFTSDYSI[Aib]LEKQAQ[Aib]AFVEWLIK([γGlu-γGlu-γGlu-γGlu-γGlu-γGlu-C20 diacid])GGPSSGASLRHYYNWLTRQRY-NH2 (also: TFA salt) [Compound 235] | 13.9 nM | 77.7 nM | 0.12 nM | 4.64 nM | 0.34 nM | 2.81 nM
Y[Aib]EGTFTSDYSI[Aib]LEKQAQ[Aib]AFVEWLIK([εLys-γGlu-γGlu-γGlu-γGlu-γGlu-C20 diacid])GGPEEGASLRHYYNWLTRQRY-NH2 (also: TFA salt) [Compound 230] | 15.4 nM | 59.1 nM | 0.29 nM | 8.23 nM | 0.28 nM | 1.43 nM
Y[Aib]EGTFTSDYSI[Aib]LEKQAE[Aib]AFVQWLIK([AEEA-AEEA-γGlu-γGlu-γGlu-γGlu-C20 diacid])GGPSEGASLRHYYNWLTRQRY-NH2 (also: TFA salt) [Compound 219] | 12.8 nM | 43.4 nM | 0.61 nM | 16.1 nM | 0.46 nM | 2.43 nM
Y[Aib]EGTFTSDYSI[Aib]LEKQAQ[Aib]AFVQWLIK([εLys-γGlu-γGlu-γGlu-γGlu-γGlu-γGlu-γGlu-C20 diacid])GGPSEGASLRHYYNWLTRQRY-NH2 (also: TFA salt) [Compound 224] | 10.6 nM | 31.6 nM | 0.13 nM | 3.24 nM | 0.43 nM | 1.35 nM
Y[Aib]EGTFTSDYSI[Aib]LEKQAQ[Aib]AFVEWLIK([AEEA-AEEA-γGlu-γGlu-γGlu-γGlu-C20 diacid])GGPSEPASLRHYYNWLTRQRY-NH2 (also: TFA salt) [Compound 226] | 11.4 nM | 46.2 nM | 0.24 nM | 7.6 nM | 0.43 nM | 2.6 nM
Y[Aib]EGTFTSDYSI[Aib]LEKQAQ[Aib]AFVEWLIK([εLys-γGlu-γGlu-γGlu-γGlu-γGlu-γGlu-γGlu-C20 diacid])GGPSSGASLRHYYNWLTRQRY-NH2 (also: TFA salt) [Compound 225] | 14.9 nM | 50.2 nM | 0.12 nM | 1.93 nM | 0.28 nM | 1.23 nM
